According to patent publication US20230357367A1:
Where two headings read alike, the source gives them in different places.

Tests used:
Test in all cases: cell-based or functional assay
[1] = molecular target: spike (SARS-CoV-2, B.1.617.2, Delta) (SARS-CoV-2)
[2] = molecular target: spike (SARS-CoV-2, B.1.617.2, Delta) (SARS-CoV-2); remark: listed apart in the source
[3] = molecular target: spike (SARS-CoV-2, XBB.1.5) (SARS-CoV-2)
[4] = molecular target: spike (SARS-CoV-2, BQ.1.1) (SARS-CoV-2)
[5] = molecular target: spike (SARS-CoV-2, B.1.617.2, Delta) (SARS-CoV-2); remark: listed apart in the source
[6] = molecular target: spike (SARS-CoV-2, CH.1.1) (SARS-CoV-2)
[7] = molecular target: spike (SARS-CoV-2, B.1.617.2, Delta) (SARS-CoV-2); remark: listed apart in the source
[8] = molecular target: spike (SARS-CoV-2, BA.4.6) (SARS-CoV-2)
[9] = molecular target: spike (SARS-CoV-2, BA.2) (SARS-CoV-2)
[10] = molecular target: spike (SARS-CoV-2, BA.2.12.1) (SARS-CoV-2)
[11] = molecular target: spike (SARS-CoV-2, XBB.1.5) (SARS-CoV-2); remark: listed apart in the source
[12] = molecular target: spike (SARS-CoV-2, BA.4/5) (SARS-CoV-2)
[13] = molecular target: spike (SARS-CoV-2, BQ.1.1) (SARS-CoV-2); remark: listed apart in the source
[14] = molecular target: spike (SARS-CoV-2, BA.2.75) (SARS-CoV-2)
[15] = molecular target: spike (SARS-CoV-2, BF.7) (SARS-CoV-2)
[16] = molecular target: spike (SARS-CoV-2, BQ.1) (SARS-CoV-2)
[17] = molecular target: spike (SARS-CoV-2, BA.1) (SARS-CoV-2)
[18] = molecular target: spike (SARS-CoV-2, BA.1.1) (SARS-CoV-2)
[19] = molecular target: spike (SARS-CoV-2, BF.7.14) (SARS-CoV-2)
[20] = molecular target: spike (SARS-CoV-2, XBB.1) (SARS-CoV-2)
[21] = molecular target: spike (SARS-CoV-2, BN.1) (SARS-CoV-2)
[22] = molecular target: spike (SARS-CoV-2, BA.2.75.2) (SARS-CoV-2)
[23] = molecular target: spike (SARS-CoV-2, BA.2.3.20) (SARS-CoV-2)
[24] = molecular target: spike (SARS-CoV-2, B.1.617.2, Delta) (SARS-CoV-2); remark: listed apart in the source
[25] = molecular target: spike (SARS-CoV-2, XBB.1.5) (SARS-CoV-2); remark: listed apart in the source
[26] = molecular target: spike (SARS-CoV-2, BQ.1.1) (SARS-CoV-2); remark: listed apart in the source
[27] = molecular target: spike (SARS-CoV-2, XBB.1.5) (SARS-CoV-2); remark: listed apart in the source
[28] = molecular target: spike (SARS-CoV-2, BQ.1.1) (SARS-CoV-2); remark: listed apart in the source
[29] = molecular target: spike (SARS-CoV-2, XBB.1.5) (SARS-CoV-2); remark: listed apart in the source
[30] = molecular target: spike (SARS-CoV-2, BQ.1.1) (SARS-CoV-2); remark: listed apart in the source

bebtelovimab (antibody) gave an EC50, pseudovirus neutralization, Vero E6, with isotype [1] of 0.44 ng/mL, an Emax, pseudovirus neutralization, Vero E6, with isotype (% neutralization) [2] of 99.7 and an Emax, pseudovirus neutralization, Vero E6, with isotype (% neutralization) [3] of 0.55. The Emax, pseudovirus neutralization, Vero E6, with isotype (% neutralization) [4] was 55.6, the EC80, pseudovirus neutralization, Vero E6, with isotype [5] was 3.5 ng/mL and the Emax, pseudovirus neutralization (% neutralization) [6] was 5.32. For the same substance, the EC50, live virus neutralization [7] was 4.6 ng/mL, the EC50, pseudovirus neutralization [7] was 3.8 ng/mL and the EC50, pseudovirus neutralization, TMPRSS2-Vero E6, with isotype [7] was 1.6 ng/mL. It also gave an EC50, pseudovirus neutralization, Vero E6, with isotype [7] of 0.63 ng/mL, an EC80, pseudovirus neutralization [7] of 23 ng/mL and an EC80, pseudovirus neutralization, TMPRSS2-Vero E6, with isotype [7] of 13 ng/mL. The EC80, pseudovirus neutralization, Vero E6, with isotype [7] was 4.2 ng/mL, the EC90, live virus neutralization [7] was 15.9 ng/mL and the EC90, pseudovirus neutralization [7] was 66 ng/mL. It also gave an EC90, pseudovirus neutralization, TMPRSS2-Vero E6, with isotype [7] of 43 ng/mL, an EC90, pseudovirus neutralization, Vero E6, with isotype [7] of 13 ng/mL and an Emax, pseudovirus neutralization (% neutralization) [7] of 99.9. The Emax, pseudovirus neutralization, TMPRSS2-Vero E6, with isotype (% neutralization) [7] was 99.7, the Emax, pseudovirus neutralization, Vero E6, with isotype (% neutralization) [7] was 99.7 and the EC50, pseudovirus neutralization [8] was 0.2 ng/mL. It also gave an EC80, pseudovirus neutralization [8] of 2.5 ng/mL, an EC90, pseudovirus neutralization [8] of 11 ng/mL and an Emax, pseudovirus neutralization (% neutralization) [8] of 99.6. The EC50, pseudovirus neutralization [9] was 0.2 ng/mL, the EC80, pseudovirus neutralization [9] was 1.4 ng/mL and the EC90, pseudovirus neutralization [9] was 4.4 ng/mL. For the same substance, the Emax, pseudovirus neutralization (% neutralization) [9] was 99.9, the EC50, pseudovirus neutralization [10] was 0.2 ng/mL and the EC80, pseudovirus neutralization [10] was 1.2 ng/mL. The EC90, pseudovirus neutralization [10] was 3.6 ng/mL, the Emax, pseudovirus neutralization (% neutralization) [10] was 99.9 and the Emax, pseudovirus neutralization (% neutralization) [11] was 2.01. It also gave an Emax, pseudovirus neutralization, TMPRSS2-Vero E6, with isotype (% neutralization) [11] of 2.93, an Emax, pseudovirus neutralization, Vero E6, with isotype (% neutralization) [11] of 4.21 and an EC50, pseudovirus neutralization [12] of 0.073 ng/mL. It also gave an EC80, pseudovirus neutralization [12] of 1.2 ng/mL, an EC90, pseudovirus neutralization [12] of 6.4 ng/mL and an Emax, pseudovirus neutralization (% neutralization) [12] of 99.8. The Emax, pseudovirus neutralization (% neutralization) [13] was 53, the Emax, pseudovirus neutralization, TMPRSS2-Vero E6, with isotype (% neutralization) [13] was 40.5 and the Emax, pseudovirus neutralization, Vero E6, with isotype (% neutralization) [13] was 59.1. It also gave an EC50, pseudovirus neutralization [14] of 0.65 ng/mL, an EC80, pseudovirus neutralization [14] of 8.2 ng/mL and an EC90, pseudovirus neutralization [14] of 36 ng/mL. For the same substance, the Emax, pseudovirus neutralization (% neutralization) [14] was 99.5, the EC50, pseudovirus neutralization [15] was 0.11 ng/mL and the EC80, pseudovirus neutralization [15] was 1.7 ng/mL. For the same substance, the EC90, pseudovirus neutralization [15] was 8.5 ng/mL, the Emax, pseudovirus neutralization (% neutralization) [15] was 99.8 and the Emax, pseudovirus neutralization (% neutralization) [16] was 72.2. For the same substance, the EC50, pseudovirus neutralization [17] was 0.17 ng/mL, the EC80, pseudovirus neutralization [17] was 1.8 ng/mL and the EC90, pseudovirus neutralization [17] was 7.2 ng/mL. It also gave an Emax, pseudovirus neutralization (% neutralization) [17] of 99.8, an EC50, pseudovirus neutralization [18] of 0.12 ng/mL and an EC80, pseudovirus neutralization [18] of 1.3 ng/mL. It also gave an EC90, pseudovirus neutralization [18] of 5.6 ng/mL, an Emax, pseudovirus neutralization (% neutralization) [18] of 99.9 and an EC50, pseudovirus neutralization [19] of 0.22 ng/mL. For the same substance, the EC80, pseudovirus neutralization [19] was 1.4 ng/mL, the EC90, pseudovirus neutralization [19] was 4.1 ng/mL and the Emax, pseudovirus neutralization (% neutralization) [19] was 99.8. It also gave an Emax, pseudovirus neutralization (% neutralization) [20] of 10.8, an EC50, pseudovirus neutralization [21] of 0.467 ng/mL and an EC80, pseudovirus neutralization [21] of 5.3 ng/mL. It also gave an EC90, pseudovirus neutralization [21] of 22 ng/mL, an Emax, pseudovirus neutralization (% neutralization) [21] of 99.4 and an EC50, pseudovirus neutralization [22] of 0.46 ng/mL. For the same substance, the EC80, pseudovirus neutralization [22] was 6.3 ng/mL, the EC90, pseudovirus neutralization [22] was 29 ng/mL and the Emax, pseudovirus neutralization (% neutralization) [22] was 99.5. It also gave an EC50, pseudovirus neutralization [23] of 12 ng/mL, an EC80, pseudovirus neutralization [23] of 360 ng/mL and an EC90, pseudovirus neutralization [23] of 2600 ng/mL. It also gave an Emax, pseudovirus neutralization (% neutralization) [23] of 97.9 and an EC90, pseudovirus neutralization, Vero E6, with isotype [24] of 12 ng/mL.
Work on sotrovimab VH/VL-huIgG1-LS (antibody) yielded an EC50, pseudovirus neutralization, Vero E6, with isotype [1] of 7.9 ng/mL, an EC50, pseudovirus neutralization, Vero E6, with isotype [25] of 170 ng/mL and an EC50, pseudovirus neutralization, Vero E6, with isotype [26] of 1200 ng/mL. The Emax, pseudovirus neutralization, Vero E6, with isotype (% neutralization) [2] was 96.9, the Emax, pseudovirus neutralization, Vero E6, with isotype (% neutralization) [3] was 93.4 and the Emax, pseudovirus neutralization, Vero E6, with isotype (% neutralization) [4] was 71.9. The EC80, pseudovirus neutralization, Vero E6, with isotype [5] was 42 ng/mL, the EC80, pseudovirus neutralization, Vero E6, with isotype [27] was 680 ng/mL and the EC80, pseudovirus neutralization, Vero E6, with isotype [28] was 4400 ng/mL. It also gave an EC50, pseudovirus neutralization, Vero E6 [9] of 851 ng/mL, an EC90, pseudovirus neutralization, Vero E6, with isotype [24] of 110 ng/mL and an EC90, pseudovirus neutralization, Vero E6, with isotype [29] of 1500 ng/mL. For the same substance, the EC90, pseudovirus neutralization, Vero E6, with isotype [30] was 9600 ng/mL.
